We go through two molecules from article PMC11829585.

The data set addresses T1, HuNoV GII.2 VLP (Human norovirus GII.2, UniProt A0A291L9K1 1-542).
T1 sequence: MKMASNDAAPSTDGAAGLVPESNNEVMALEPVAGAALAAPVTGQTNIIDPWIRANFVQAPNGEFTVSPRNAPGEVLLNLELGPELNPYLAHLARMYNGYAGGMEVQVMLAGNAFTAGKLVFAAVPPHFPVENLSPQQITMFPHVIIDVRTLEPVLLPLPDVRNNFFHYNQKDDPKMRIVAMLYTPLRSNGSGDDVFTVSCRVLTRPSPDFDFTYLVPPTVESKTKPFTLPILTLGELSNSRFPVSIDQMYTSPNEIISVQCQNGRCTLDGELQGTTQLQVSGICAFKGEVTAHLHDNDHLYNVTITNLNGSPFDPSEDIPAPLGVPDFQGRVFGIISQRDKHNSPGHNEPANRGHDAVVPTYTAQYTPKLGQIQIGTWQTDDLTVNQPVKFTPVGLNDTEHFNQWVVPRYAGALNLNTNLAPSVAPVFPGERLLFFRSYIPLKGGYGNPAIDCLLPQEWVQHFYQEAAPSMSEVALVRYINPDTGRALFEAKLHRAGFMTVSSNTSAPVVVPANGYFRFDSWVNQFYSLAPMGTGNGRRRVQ
The data set can be described thus: dot blot.

Take GGAACACGACCCGTCTGTGGCCATCACAGTACAGCATCGTCGTG (ssDNA) [AP17-4]: the binding result is on record as “binds”. With AACACGACAACCCTGTGACCAACGAACCACACCAAAGTGGGC (ssDNA) [AP4-2], the binding result was “binds”.
